Tested on: MS2 coat protein
Experiment: apparent KD of MS2 coat protein; higher = weaker reporter binding
Conditions: Eterna round: R107
How it was run: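 Illumina sequencing clusters served as templates for on-chip transcription of the designed RNA switches. SNAP-549-labelled MS2 coat protein was then titrated in twofold steps from 0.7 or 1.5 nM to 3 µM, allowing 0.8–1.5 h per step at first and 10–20 min per step later. The buffer held 100 mM Tris-HCl pH 7.5, 80 mM KCl and 4 mM MgCl2, without or with constant ligand. Apparent KD is the median per design of normalised cluster binding-curve fits.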

[1] = input ligand: theophylline 20 uM
[2] = input ligand: tryptophan 2.4 mM
[3] = input ligand: theophylline 2 mM

Sequence | apparent KD of MS2 coat protein (input ligand: arginine 13.2 mM) | apparent KD of MS2 coat protein [1] | apparent KD of MS2 coat protein [2] | apparent KD of MS2 coat protein [3] | apparent KD of MS2 coat protein (input ligand: none)
AUCGUACCUGAGGAUACCAGCAUGUGAUCAUAACAUGAGGAUCACCCAUGUAAUCAGUGAUGCCCUUGGCAGCUUGAUCGGUACA [Same State - Theophylline B (Freestyle 11)] | 53.4 nM | 83.6 nM | 63.8 nM | – | –
AUCGUACCUGAUGAUACCAGCAAUUGCUCGUGACAUGAGGAUCACCCAUGUGACCAGUGAUGCCCUUGGCAGCAUGGUCGGUGCA [Same State - Theophylline B (Freestyle 22)] | 42.8 nM | 79.3 nM | 69.5 nM | – | –
AUGACUAACAAAGAAGAUAAAAUGGGUGAACGAGGACCGGUACGGCCGCCACUCGGACAUGAGGAUCACCCAUGUCCAUGUGCAA [#23 Exclusion Tryptophan A] | 15.6 nM | 21.7 nM | – | 20.4 nM | –
AUGCGGUGCGGAAGGAGCGAGUUUGCCUAUUUACAUGAGGAUCACCCAUGUCCUAAUGGGACUCAGGUAGGUCGCCGUUGUCGCA [Same State Arginine B GF 29] | 47.7 nM | 65.5 nM | 52.1 nM | 49.9 nM | 45.5 nM
AUGCUUAUCAGAAGGAGCGUCAUUAACAUGAGGAUCACCCAUGUAACAUUGAAUUCGAUGAGACAGGUAGGUCGCUGAAUAGUAA [SS-ArgB27] | 28 nM | 51.5 nM | 37.5 nM | 41.3 nM | 45.1 nM
AUGCUUGUCAGAAGGAGCGUCUUUAACAUGAGGAUCACCCAUGUAUCAUGGAAUUUGAUGAGACAGGUAGGUCGCUGAAUAGUAA [JR_SSArginiB_Sub021] | 30 nM | 42.7 nM | 25.7 nM | 34.5 nM | 29.8 nM
AUGGACGACGAUCUGGGAAAACCAGAUCGACGAGGACCGGUACGGCCGCCACUCGUGUUUAUUUAACAUGAGGAUCACCCAUGUA [#13 Tryptophan A Same State] | 34 nM | 55.7 nM | – | 65.5 nM | –
AUGUCAUUGGUGUAGCUGUGAAGUGGCGAUACCAGCGUGGAAACACGCCCUUGGCAGCGCCAAAACAUGAGGAUCACCCAUGUUA [#23 Exclusion-TheophyllineA] | 19 nM | 56.3 nM | 22.9 nM | – | –
AUGUCCUAAACGGCCGCCACUUACAUGAGGAUCACCCAUGUUUACCGAUAUGGUUGUUGCUUUCCAAGGACCGGGUUUAAUCUGC [theeternabot_exclusion_MS2_Trp_B_49] | 13.1 nM | 14.9 nM | – | 12.7 nM | –
AUGUCGUUGAAUAUAGCGGCUUGGAGUGAUACCAGAAUGAUCUAAUUCCCUUGGCAGCAUUACAUGAGGAUCACCCAUGUUCCAG [SSTheo A #22] | 27.8 nM | 57.4 nM | 55.5 nM | – | –
AUUAACUGGUAAGAUACCAGAGUCGGGAUCUACAUGAGGAUCACCCAUGUUCUAAAGUCGCUCCCUUGGCAGCUUCAAUGAGUCG [theeternabot_sameState_MS2_Theo_B_27] | 23.3 nM | 45.9 nM | 34 nM | – | –
AUUAAUUGUCGUGAUACCAGACUUACAUGAGGAUCACCCAUGUUACUUAAGAUUUUUGUUGUCCCUUGGCAGCACUUUUUAAUUA [JR_Nu_ExcTheophyB_Sub024] | 24.5 nM | 33 nM | 23.3 nM | – | –
AUUCAGAGAUCACAUGAGGAUCACCCAUGUCGAGGACCGGUACGGCCGCCACUCGCGGCGGUGAAAAUAGAUACAAAGUAUCUAU [Ex_TrypA - Vienna approves #2] | 25.5 nM | 61.8 nM | 284 nM | 45.9 nM | 50 nM
AUUGCGAGUGAGUCGUGUAACGAUUCAGAUACCAGGCAUUUCGUUGUCCCUUGGCAGCUGUCUUACAUGAGGAUCACCCAUGUUA [#29 Exclusion-TheophyllineA] | 23.8 nM | 54.8 nM | 56.3 nM | – | –
CAAAAUAUAACGGCCGCCACUUACUCAUGAGGUAACAACAUGAGGAUCACCCAUGUUUGAGGAUCAAGGACCGGGUUAUAUUUUG [AstrosSSTry#21] | 24.7 nM | 34.9 nM | – | 33 nM | –
CAAACAUGAGGAUCACCCAUGUAAUCAGAUACCAGUGACGAAAGUCACCCUUGGCAGCUGAUUACUUUAGUUCUAAGGUGUUUGA [EThA NP+V+V2 #5 +-Same Structure] | 53.6 nM | 116 nM | 38.7 nM | – | –
CAAAUAGACCACGAUACCAGAACACAAGGAGUAAUAUCAAACAUGAGGAUCACCCAUGUCUUCCCUUGGCAGCGUAGCACGGAGU [theeternabot_exclusion_MS2_Theo_B_23] | 13.5 nM | 15.2 nM | 11 nM | – | –
CAAUAUAUAACGGCCGCCACUUACUCAUGAGGUAACAACAUGAGGAUCACCCAUGUUUGAGGAUCAAGGACCGGGUUAUAUAUUG [AstrosSSTry#19] | 29.3 nM | 33 nM | 18.4 nM | 27.1 nM | 28 nM
CAAUAUAUAUGAAGGAGCGACAUGAGGAUCACCCAUGUCUACCACGUCGAAAGACGCUCAUGUCAGGUAGGUCGCAUAUAUAUUG [Astros-Eli-mod4] | 71.9 nM | 129 nM | 90.9 nM | 144 nM | 102 nM

Sequence | apparent KD of MS2 coat protein (input ligand: arginine 13.2 mM) | apparent KD of MS2 coat protein [1] | apparent KD of MS2 coat protein [2] | apparent KD of MS2 coat protein [3] | apparent KD of MS2 coat protein (input ligand: none)
CACAUGAGGAUCACCCAUGUCUGAACUGAAGGAGCGCUAAACAAGGCAGGUAGGUCGCGGAAUCCCGUGUGCAUAUGCACACGGG [9.Z] | 24.1 nM | 24.1 nM | 18.9 nM | 20.4 nM | 15.6 nM
CACAUGAGGAUCACCCAUGUCUGAACUGAAGGAGCGCUAAACAAGGCAGGUAGGUCGCGGAAUUUUGUGUGCAUAUGCAUAUGGG [9.N] | 21.6 nM | 36.3 nM | 24.8 nM | 26.9 nM | 24.5 nM
CACAUGAGGAUCACCCAUGUCUGAACUGAAGGAGCGCUAAAUAAGGCAGGUAGGUCGCGGAAUCUUGUGUGCAUAUGCACACGGG [9.T] | 18.2 nM | 28.5 nM | 25 nM | 31.2 nM | 20.5 nM
CACGGCCAUGAGGAUCACCCAUGGAAUAAUCGAGGACCGGUACGGCCGCCACUCGUGGACCGUGACCUGUACGAAAAGUGCAGGA | 20.8 nM | 31.7 nM | 10 nM | 26.9 nM | 26.5 nM
CAGAGCUACCGGGAUACCAGAAAUGGUAUUCCUUAAUUUCUUACAUGAGGAUCACCCAUGUUCCCUUGGCAGCUUGGUAGCUCUG [ETHB #8] | 48.6 nM | 107 nM | 83.7 nM | – | –
CAGCACAUGAGGAUCACCCAUGUGAGGGAUACCAGCUCAGGCGUGGGCCCUUGGCAGCUCUCUGGCUGACGAAAGUCAGCCUGUG [#20 SameState-TheophyllineA] | 14.4 nM | 24.2 nM | 13.6 nM | – | –
CAGGUCAGGGCGGCCGCCACUGUGGCUACGGUACAUGAGGAUCACCCAUGUUUGUGGUUGAUCUACAGGACCGGGCCCUAACACG [Beabe] | 1080 nM | 214 nM | 126 nM | 757 nM | 430 nM
CAUACUUGAUCCUAUGAGCCUAUUUGUGAUACCAGCAUCUAAAUUUGCCCUUGGCAGCACUAACAUGAGGAUCACCCAUGUUAUA [JR_Nu_ExcTheophyA_Sub028] | 23.7 nM | 42.5 nM | 37 nM | – | –
CAUAUAUAUAGAAGGAGCGACAUGAGGAUCACCCAUGUCUACCACGUCGAAAGACGCUCAUGUCAGGUAGGUCGCUAUAUAUAUG [Astros-Eli-mod2] | 56.2 nM | 154 nM | 147 nM | 198 nM | 115 nM
CAUGACAUGAGGAUCACCCAUGUAUCCAGUCGAGGACCGGUACGGCCGCCACUCGGUGCCUUCAAAUUUACAGACAGGUGACAGG [theeternabot_sameState_MS2_Trp_A_30] | 26.2 nM | 42.9 nM | – | 39.6 nM | –
CCAGCCCUUCUAGAUACCAGCUUUCAAUAUAAGACAACUCACAUGAGGAUCACCCAUGUUAGCCCUUGGCAGCUAAGAUCCACAA [theeternabot_exclusion_MS2_Theo_B_32] | 46.6 nM | 67 nM | 48.5 nM | – | –
CCAUCUACAUCGGCCGCCACUGAACCAAGGAGACAUGAGGAUCACCCAUGUAUGGGAAACCAUCAUAGGACCGGGAUGAUCUACC [doubleHook] | 95.2 nM | 336 nM | – | 415 nM | –
CCAUGCAGGUCGGCCGCCACUACACACAUGAGGAUCACCCAUGUAGUUACUGGGUGAAGUGGCAGUAGGACCGGGACCUGCACAC [Brourdmod20] | 84 nM | 446 nM | 335 nM | 601 nM | 289 nM
CCCAACAGUGAUGCCGGUGUUGGUGGUGAUACCAGCGUCUUAUGGCGCCCUUGGCAGCACCAACAUGAGGAUCACCCAUGUGAAA [Beenerveor] | 19.8 nM | 113 nM | 36.9 nM | – | –
CCCUGGGUGGGAAGGAGCGCAUAUUCAACAUGAGGAUCACCCAUGUACAGACGUGAGUCAUUGCAGGUAGGUCGCCCACCCAGGG [SS-ArgB21] | 12.9 nM | 20.4 nM | 15.5 nM | 14.8 nM | 15.7 nM
CCGCACAUGAGGAUCACCCAUGUCAGGGAUACCAGCCCAGACAUGGGCCCUUGGCAGCUUUGUAGCUGACGAAAGUCAGCAGCGG [Omei Theo A SS A v2] | 17.6 nM | 62.3 nM | 59.2 nM | 101 nM | 33.6 nM
CCUAUGCAGUCGGCCGCCACUGAACAUGAGGAUCACCCAUGUAAUUAAAAUUAAGAUCCUGAAAUCAGGACCGGGACUGUAUAGG [Ex Tryptophan B 4] | 25.5 nM | 280 nM | 196 nM | 140 nM | 1520 nM
CCUCGGGACCGAAGGAGCGAGAUAACAACAAUGGGUCUCUACACAUGAGGAUCACCCAUGUCUCAGGUAGGUCGCGGUACCUUAG [Exclusion Arginine B GF23] | 137 nM | 287 nM | 238 nM | 491 nM | 261 nM
CCUGAUGAGUCGGCCGCCACUCCAGUUGUAUUACAGGUUUUCGUAGACAUGAGGAUCACCCAUGUGAGGACCGGGACACACACAG [theeternabot_exclusion_MS2_Trp_B_21] | 11.7 nM | 23.8 nM | 17.2 nM | 17.4 nM | 11.3 nM
